# In the DeepSol protein solubility set:
# Test: soluble on expression in E. coli; label from the status in PepcDB or PDB records
row,Sequence,soluble on expression in E. coli
1,MGSDKIHHHHHHMFKPWVGDDWGHQDNALQGIRLLVMGESHYCDPAKPELVGRCEPDVTSYVVRRYAIEESHRFFTGITQVISGKPKWQMSRDDVAAIWHSIAFYNYVPLYVGTQSRIRPGDKFALGRVPFEILLEQLRPRAILVCGYELWWWVLKGMPCGFNGDPASVPFQKIGPAIAARMKHPSSAYSSVRWRPTLLELLSRARALQQE,not soluble
2,MGSDKIHHHHHHMFLDDFHTVTDDRLCITAEQASRFAKCIAGDYNPIHDPDARRFCVPGDLLFALVMARFGLAQRMTFHFKGMVGDSVPLCFAQHGDTVSVTDHHGKVYLEVERGGDITHDAGVIEAFTRRYVAFSGRNFPHYLKPLMEEQGVMFNPQRPLVIYDSMGFSLSRLDVAEAGVAFTGATLDVTGKRGDALLQFQMTDADTVIGHGSKKLVVSGLREYDPPVMDAFVEQFMSLKAHSATTG,not soluble
3,MGSDKIHHHHHHMFLDGEEGLIGYIIVTGTAGAGKSSLVGALADRITSLGANVATLNLDPAAEKLPYDPSVDARDYVSVAELMDKGLGPNGALVAAVDSLINHVLDIREEIDYYSPDYVVVDTPGQLELFAYRVGGPLVLRGIMGDYNGVNIFLIDSIFIDNAISLVSALLLASSVAVRLGLPQVNAVSKADMLLPEVREEVIPRLGEPGFLEFLLEKDKTYEGAGKALAEELARAIETTGFIGEVLQASVLEPETVTLLAAKAQQILAGGDDYKIYDITGQ,not soluble
4,MGSDKIHHHHHHMFMKNLYIDPDITKASTISSEFYTSTEWFEITKEKIFSKTWQFCISTEELTTNRQLIPFTLLPGYLEEPLLFAKDELGTIRCLSNVCTHRGKILIEEPCVAHKIKCSYHGRRFNFCGELLHMPEFELTKDFPSNNDNLSQISTGILEPFLFASLSPVVPFHEVFAEIKERLFWLPMEKMRLDKEKCKDYVVKSHWALYCENYLEALHIPFVHPSLRKVIDCNTYTTELFRYCNLQLALASPDEVSFDLPKGAQDYGKQVAAYYFWIFPNTMLNFYPWGCSVNVVKPLSPELTQVSFLSFVLDESKFGKGAGGALDQVEQEDERVVESVQRGIKSRYYDIGRFSPTKEQGTHHFQRLLCEFLND,not soluble
5,MGSDKIHHHHHHMFNSEIKEKYLDTLSEGMVMQMRPIFAKAEITETLYNKDIYDFTSMQILELIRSFDQTTIGSVRRTLALLSLYIDWAISYKLSKGLTNLARTISEEELYECLGDKKLYITYSELEEMENQLVNYQSKAVLRLLFEEVSGLAHSELLSLTKKQVEDAMLNGNVLTLYDSKHGERKLKVSSECLVIALNAAQETKYKLKNGKAKGQTKEVFLVENDYVVKTKRTSNKGDGQASKFVITNLITDISEFFKINFLTPNTIVRSGHLYRAYQLYKEKGVIDNSVRYQIIDDFNLRVKSKYRAVYSMQDYINEEEVNKYYAEELGLKETTI,not soluble
6,MGSDKIHHHHHHMFQDKYVFAQLASFLNRSKFNRIVTKYDGDKYVKHFTCWNQLLALMFGQLSNRESLRDLIVALEAHHSKCYHLGMGKNVSKSSLARANQDRDYHIFEEYAYYLVSEARQKCANHIFKLGGNVYAFDSTTIDLCLSVFWWAKFRKKKGGIKVHTLYDVETQIPAFFHITEASVHDSKVMIEIPYEPSSYYIFDRGYNNFKMLYKIHQIEAYFVVRAKKNLQYKSIQWKRRLPKNVLSDASVLLTGFYPKQYYPKPLRLVKYWDEEQEREFTFITNAMHISALQVAELYKNRWQVELFFKWLKQHLKIKRFWGTTENAVRIQIYAAICAYCLVAIIQHDMQLDRSTYEVLQILSISLTDKTHLRDLFDKTKFQNDKERFGPNGPSLFNF,not soluble
7,MGSDKIHHHHHHMFQLHHKLAADSFLVGDFPLSTCRLINDCQFPWLILVPRVSGIKELYELSEADQTQFLRESSWLSSQLAKTFQADKMNVAALGNQVPQLHFHHIVRYQNDMQWPNPVWGIPAVPYSKEVLAQMQQTLMMALRGHHQMPFDWQM,not soluble
8,MGSDKIHHHHHHMFQNKKHRIALISIDGDPAVEIGQEEAGGQNVYVRQVGYALAQQGWQVDMFTRRSNSEQSAIAQHGPNCRTIRLKAGPAEFIGRDNLFDHLPEFIEEFQKFQQRQGFHYSLIHTNYWLSSWVGMELKKQQSLIQVHTYHSLGAVKYRSIGDVPVIAAQRLAVEKACLETIDCVVATSPQEQKHMRVLVSSKGNIEMIPCGTDTDKFGGIQRTAAREKLGIAPDAKIVLYVGRFDRRKGIETLVRAVAKSSLRGEANLQLVIGGGSRPGQSDAIERDRIASIVTELGLENCTTFAGRLDETVLPFYYAAADVCVVPSHYEPFGLVAIEAMASQTPVVASDVGGLQFTVVPEVTGLLAPPKDEVAFAAAIDRILINPTWRDQLGEAARQRTEIAFSWYSVGFRLTQLYTRLLAQTASNTRPRIAA,not soluble
9,MGSDKIHHHHHHMFRYDVISNKKNVNPHILALHHHNEKTWISSSSGGVFASLTDYALRQAGVIFGAIYDDNFVVVHRRAETQEDTLKFRGSKYVQSNLTGIYQQVKFYLQEQRFVLFSGTPCQVEGLKGYLQRSYDNLLTVDILCHGVPSPRVFHDYLNFIRQNSDFHFTGIFMKDKTFGWGYQNSRLFFGKNASQFNTVLSRLWNDIFYSHLTTRPSCHACRFTNYLRPGDITIGDFWGIEKHHPQFTDSRGISLIMLNNTKAEIVWNHIKDDFNYLESNIKECIQPNLKYPVPEPVNKATFWQDYASMPFFQIMNKYYRITHQDLLKNRFYMILLTLKKRFT,not soluble
10,MGSDKIHHHHHHMGASAISQQISKLEQELSIRLLQRNAFGVTPTPAGLAFLKHSQLILRQVNFAIDAAHSARLSGHVSLGFPPTITALIGIPLMKLMSERYPDIRLEIVETLSGNLIQSINSRQLDIAIIFTNEIDKQWSIQPLVREQMYLMARKEVLEKYGLSECIKSGIIQSQQIGDIPLVLPRQRHSLRKLLEHKIGQLNVVYEIDGLHLLMDSLIHLDLASVRPGSACLQEYKHKLQLLKVVDPEVERINYLVSLAEEELSPAALAAKSAIKACVKELIQNQIWPCSEIIL,not soluble
11,MGSDKIHHHHHHMGFEMTRGHLTWNDFKIVMAIANAGSLSGAARSLGVNHATVFRRLGDIERRLGVALFERSRKGYKPSLAGEELANTARIMDEAAHSAERKVAGRDLRPSGEIWVTTTDSLLMGLLAPLFKEFRNRYPDIVLDVAVANEMLNLTRREADVGIRPVNRPPENLIGRRLATVGQAIFGHRNLGLDKGQSIDFLSQQPWIGAGPRLQDSVLEQWMAQKNLADACVFRVDTLVGLLSAVNEGLGLAALPCYLAETCPDIVQLSDPIPELNYDLRKPLKVATHST,not soluble
12,MGSDKIHHHHHHMGIDELYKKEFGIVAGVDEAGRGCLAGPVVAAAVVLEKEIEGINDSKQLSPAKRERLLDEIMEKAAVGIGIASPEEIDLYNIFNATKLAMNRALENLSVKPSFVLVDGKGIELSVPGTCLVKGDQKSKLIGAASIVAKVFRDRLMSEFHRMYPQFSFHKHKGYATKEHLNEIRKNGVLPIHRLSFEPVLELLTDDLLREFFEKGLISENRFERILNLLGARKSVVFRKERTNHNLPLF,soluble
13,MGSDKIHHHHHHMGIINAAFRLSQIERSIINKECHRTTCSLMDFIRDYTVVATDLEEAVQLRSTYNSLRRLGESDITEEDAVNILQQGTVIFNRISAYSYEELERKLVANYPNTPVLNAVDVVKKYSQKGNFKLGPVSTVLNAGEITGIVGENGNGKTTLLRILARLLSYDEGVLQYQFDGQETTEDYLIKHRIAYIPQRLESWQGTLRENLHYAATIHNIVGEENEKIVEFVIHRMGLSNFAHLGWKELSSGYKLRFELAKMLVWSPRILVLDEPLANLDINAQEWILQDFKSMASSIKNPVSVILSSQQLHEVEHVADNIIFLRNGRCDYSGAMNAFMQERDENVFELSGNFTSKELQPIFSNHAVQFSESGITIIVRTNTAITAADVLSMLISNGYTIKYFRDISTSTKQLFQL,not soluble
14,MGSDKIHHHHHHMGILYLKEHTSCYNYTKCIREGFLYHKFCDIEMDEEINETDSILFVIEGELEMSCNGKKMKLLAGNMICFGRGSRFKIHSRGKGSIVIAQFDNAVQSCEKISFAQLNSLDSPGDKIYPLEIRDRLHLFLKLLISYLEDGANCVHFHETKLKELFWSIRFYYTKTEQAAFFHPILGNDYDFKKKIFNNYRNARTVKELAGLCGTPLSSFKRKFLKEFREPAGNWLQKQINNIIKYKLADEDIPIGNIAEELHFSSHPQFCRYCKRNFGYTPGEWRKLLKNRDKTPGKLSGRV,not soluble
